maleimide monolayer = not defined here

The labels stand for the following.
B1: Ac-GAGDSC (SEQ ID NO: 30), immobilized on a monolayer array (peptide)
peptide: Ac-GAGDSC(maleimide monolayer)-NH2
modifications: not fully specified; printed as Ac-GAGDSC; reading uncertain
notes: also called 0.5% Ac-GAGDSC; Ac-GXGDSC with X = Ala
B2: Ac-GXGDSC (SEQ ID NO: 26) with X = W, immobilized on a monolayer array (peptide)
peptide: Ac-GWGDSC(maleimide monolayer)-NH2
modifications: reading uncertain; also: printed as Ac-GXGDSC
notes: Member of the Ac-GXGDSC library
B3: Ac-GLGDSC (SEQ ID NO: 34), immobilized on a monolayer array (peptide)
peptide: Ac-GLGDSC(maleimide monolayer)-NH2
modifications: not fully specified; printed as Ac-GLGDSC; reading uncertain
notes: also called 0.5% Ac-GLGDSC; Ac-GXGDSC with X = Leu
B4: Ac-GIGDSC (SEQ ID NO: 33), immobilized on a monolayer array (peptide)
peptide: Ac-GIGDSC(maleimide monolayer)-NH2
modifications: not fully specified; printed as Ac-GIGDSC; reading uncertain
notes: also called 0.5% Ac-GIGDSC; Ac-GXGDSC with X = Ile
B5: Ac-GXGDSC (SEQ ID NO: 26) with X = D, immobilized on a monolayer array (peptide)
peptide: Ac-GDGDSC(maleimide monolayer)-NH2
modifications: not fully specified; printed as Ac-GXGDSC; reading uncertain
notes: as for B2
B6: Ac-GXGDSC (SEQ ID NO: 26) with X = Y, immobilized on a monolayer array (peptide)
peptide: Ac-GYGDSC(maleimide monolayer)-NH2
modifications: reading uncertain; also: printed as Ac-GXGDSC
notes: as for B2
B7: Ac-GXGDSC (SEQ ID NO: 26) with X = M, immobilized on a monolayer array (peptide)
peptide: Ac-GMGDSC(maleimide monolayer)-NH2
modifications: not fully specified; printed as Ac-GXGDSC; reading uncertain
notes: as for B2
B8: Ac-GXGDSC (SEQ ID NO: 26) with X = F, immobilized on a monolayer array (peptide)
peptide: Ac-GFGDSC(maleimide monolayer)-NH2
modifications: not fully specified; printed as Ac-GXGDSC; reading uncertain
notes: as for B2
B9: Ac-GVGDSC (SEQ ID NO: 32), immobilized on a monolayer array (peptide)
peptide: Ac-GVGDSC(maleimide monolayer)-NH2
modifications: not fully specified; printed as Ac-GVGDSC; reading uncertain
notes: also called 0.5% Ac-GVGDSC; Ac-GXGDSC with X = Val
B10: Ac-GXGDSC (SEQ ID NO: 26) with X = T, immobilized on a monolayer array (peptide)
peptide: Ac-GTGDSC(maleimide monolayer)-NH2
modifications: not fully specified; printed as Ac-GXGDSC; reading uncertain
notes: as for B2
B11: Ac-GGGDSC (SEQ ID NO: 29), immobilized on a monolayer array (peptide)
peptide: Ac-GGGDSC(maleimide monolayer)-NH2
modifications: not fully specified; printed as Ac-GGGDSC; reading uncertain
notes: also called 0.5% Ac-GGGDSC; Ac-GXGDSC with X = Gly
B12: Ac-GXGDSC (SEQ ID NO: 26) with X = H, immobilized on a monolayer array (peptide)
peptide: Ac-GHGDSC(maleimide monolayer)-NH2
modifications: not fully specified; printed as Ac-GXGDSC; reading uncertain
notes: as for B2
B13: Ac-GKGDSC (SEQ ID NO: 31), immobilized on a monolayer array (peptide)
peptide: Ac-GKGDSC(maleimide monolayer)-NH2
modifications: not fully specified; printed as Ac-GKGDSC; reading uncertain
notes: also called 0.5% Ac-GKGDSC; Ac-GXGDSC with X = Lys
B14: Ac-GXGDSC (SEQ ID NO: 26) with X = Q, immobilized on a monolayer array (peptide)
peptide: Ac-GQGDSC(maleimide monolayer)-NH2
modifications: not fully specified; printed as Ac-GXGDSC; reading uncertain
notes: as for B2
B15: Ac-GXGDSC (SEQ ID NO: 26) with X = S, immobilized on a monolayer array (peptide)
peptide: Ac-GSGDSC(maleimide monolayer)-NH2
modifications: not fully specified; printed as Ac-GXGDSC; reading uncertain
notes: as for B2
B16: Ac-GXGDSC (SEQ ID NO: 26) with X = P, immobilized on a monolayer array (peptide)
peptide: Ac-GPGDSC(maleimide monolayer)-NH2
modifications: not fully specified; printed as Ac-GXGDSC; reading uncertain
notes: as for B2
B17: Ac-GRGDSC (SEQ ID NO: 28), immobilized on a monolayer array (peptide)
peptide: Ac-GRGDSC(maleimide monolayer)-NH2
modifications: not fully specified; printed as Ac-GRGDSC; reading uncertain
notes: also called 0.5% Ac-GRGDSC

The test system of the first test is αIIbβ3 CHO K1 cells. The test is described as follows: Cell adhesion assay: αIIbβ3 CHO K1 cells on SAMs presenting immobilized peptides. The class given is cell-based, human. As to conditions: 0.5% peptide SAM; in presence of 300 μM cRGDFG. The protocol:
Monolayers were prepared as described (Houseman, et al., 2003). Glass coverslips were sonicated for 30 minutes in deionized ultrafiltered (DIUF) water and then 30 minutes in ethanol and then dried under a stream of nitrogen. Titanium (4 nm) and then gold (29 nm) were evaporated onto the coverslips using an electron beam evaporator (Boc Edwards) at a rate of 0.05-0.10 nm/s and at a pressure of 1 μTorr. The gold-coated coverslips were immersed in an ethanolic solution of maleimide-terminated disulfide (1%) and tri(ethylene glycol)-terminated disulfide (99%) overnight at room temperature. The total disulfide concentration was 1 mM. The substrates were washed with DIUF water, ethanol and then dried under a stream of nitrogen.
The pcDNA3.1 vectors that express human αIIb or β3, respectively, have been described previously (see e.g., Litvinov et al. (2006) Biochemistry, 45: 4957-4964). CHO K1, BHK 21 and HT1080 cells were purchased from ATCC. All CHO cells were cultured at 37° C. and 5% CO2 using F12K medium supplemented with 10% FBS and pen/strep. […] CHO K1 cells were transfected with αIIb and β3 cDNA with FuGENE following the supplier's protocol. Transfected cells were selected with 1 mg/mL zeocin and 1 mg/mL geneticin.
(§1) Cysteine-terminated peptides were immobilized onto maleimide-presenting SAMs by adding 40 μL of 1 mM peptide solution to the biochip and incubating at 37° C. for 1 hour. Substrates were rinsed with DIUF water and ethanol and dried under a stream of nitrogen. αIIbβ3 CHO K1 cells were detached from culture plates with 1 mM EGTA/2 mM EDTA in PBS (phosphate-buffered saline), rinsed with serum-free F-12K medium, centrifuged and resuspended in serum-free F-12K medium supplemented with cRGDFG (SEQ ID NO: 12) (300 μM) and 1× penicillin/streptomycin. After 15-minute of incubation, cells (200,000/mL) were added to substrates in 24-well culture plates. After 2 hour incubation at 37° C. and 5% CO2, media was exchanged for F-12K medium supplemented with 10% FBS, 1× penicillin/streptomycin and cRGDFG (SEQ ID NO: 12) (300 μM). After 2 hours, the substrates were washed gently with warm PBS, and adherent cells were immediately fixed with 4% formaldehyde for 30 minutes, visualized with a 20× objective of a Zeiss Axiovert 200 inverted microscope, and photographed. For cell adhesion assays mediated by Ac-GXGDSC (SEQ ID NO: 26), αIIbβ3 CHO K1 cells were incubated on a 5×4 circle (1 mm diameter) array for 1 hour with serum-free F-12K medium supplemented with cRGDFG (SEQ ID NO: 12) (300 μM) and 1× penicillin/streptomycin, followed by media exchange to F-12K medium supplemented with 10% FBS, 1× penicillin/streptomycin and cRGDFG (SEQ ID NO: 12) (300 μM. The substrates were washed with warm PBS, and adherent cells were immediately fixed and permeabilized with 4% formaldehyde and 0.5% Triton-X for 30 minutes. Fixed cells were stained with DAPI, visualized and photographed with a 20× objective as described. The number of adherent cells per field of view was counted using Image J software. Cells were counted in at least three fields for each circle, and each experiment was repeated 3 times. The degree of adhesion is reported as a percentage of cells that adhere relative to control experiments with the peptide Ac-GRGDSC (SEQ ID NO: 28).
Monolayers were prepared that presented a mixture of maleimide groups and tri(ethylene glycol) groups with the former present at a density of 0.5% (relative to total alkanethiolate). The monolayers were treated with cysteine-terminated peptides to immobilize the ligands (FIG. 1A). In each case mass spectrometry was used to verify immobilization of the peptides in high yield (Su et al., 2002).
The adhesion and spreading of αIIbβ3 CHO K1 cells to monolayers presenting GRGDSC (SEQ ID NO: 11), HHLGGAKQAGDVC (SEQ ID NO: 21) and a mixture of both peptides was compared. […]
With AGDVC (completely synthesized peptide), the “adhesion of αIIbβ3 CHO K1 cells to monolayer presenting the peptide” value (“adhesion of αIIbβ3 CHO K1 cells” below) is “adhered”.

For GDVC (completely synthesized peptide), the “adhesion of αIIbβ3 CHO K1 cells” value was “failed to adhere”.

On to “GGAKQAC (completely synthesized peptide)”, for which the “adhesion of αIIbβ3 CHO K1 cells” value is on record as “failed to adhere”.

GHHLGGADQAGKVC (scrambled peptide): the “adhesion of αIIbβ3 CHO K1 cells” value was “lack of cell attachment”.

“HHLGGAC (completely synthesized peptide)”: the “adhesion of αIIbβ3 CHO K1 cells” value was “failed to adhere”.

For KQAGC (completely synthesized peptide), the “adhesion of αIIbβ3 CHO K1 cells” value is given as “failed to adhere”.

KQAGDC (completely synthesized peptide): the “adhesion of αIIbβ3 CHO K1 cells” value is “adhered”.

The target of the next test is T1, human αIIbβ3 integrin on transfected CHO K1 cells (human, UniProt P08514 32-1039; P05106 27-788).
T1 construct: whole, on cells; CHO K1 cells transfected with human αIIb and β3 cDNA; about 30% of the cells expressed the receptor; also called platelet receptor; platelet integrin
Description: Ac-GXGDSC peptide array, adhesion of αIIbβ3 CHO K1 cells.
Details: not given
The protocol: as §1, with “After” for “Cysteine-terminated peptides were immobilized onto maleimide-presenting SAMs by adding 40 μL of 1 mM peptide solution to the biochip and incubating at 37° C. for 1 hour. Substrates were rinsed with DIUF water and ethanol and dried under a stream of nitrogen. αIIbβ3 CHO K1 cells were detached from culture plates with 1 mM EGTA/2 mM EDTA in PBS (phosphate-buffered saline), rinsed with serum-free F-12K medium, centrifuged and resuspended in serum-free F-12K medium supplemented with cRGDFG (SEQ ID NO: 12) (300 μM) and 1× penicillin/streptomycin. After”, “CO₂,” for “CO2,”
To further assay the binding of peptide ligands to the […] integrin for XGD peptide ligands, an array was used to assess the adhesion of cells to peptides having the arginine residue substituted with each amino acid other than cysteine (e.g., A, D, E, F, G, H, I, K, L, M, N, P, Q, R, S, T, V, W, and Y). The library of Ac-GXGDSC (SEQ ID NO: 26) peptides was synthesized and immobilized in an array with each peptide occupying a 1 mm diameter region of the monolayer (FIG. 61). A suspension of αIIbβ3 CHO K1 cells was applied to the entire array and cells were allowed to attach to regions presenting the various peptides. The substrates were then rinsed and stained with DAPI, and the cells were counted to determine the relative efficiency of cell attachment to peptides in the library.
With B1, the binding result was “binds”.

As for B2, the binding result was “no binding”.

B3: the binding result is “binds”.

As for B4, the binding result is given as “binds”.

For the molecule B5, the binding result is “no binding”.

Consider B6, for which the binding result is on record as “no binding”.

Turning to B7, the binding result is “no binding”.

For the molecule B8, the binding result is “no binding”.

For B9, the binding result is reported as “binds”.

For the molecule B10, the binding result is “no binding”.

On to B11, for which the binding result is recorded as “binds”.

As for B12, the binding result was “no binding”.

In the case of B13, the binding result is “binds”.

Regarding B14, the binding result is listed as “no binding”.

For B15, the binding result is on record as “no binding”.

As to B16, the binding result is “no binding”.

Regarding B17, the binding result is listed as “binds”.
